PMC10786891, “Massively parallel profiling of RNA-targeting CRISPR-Cas13d”

T1: EsCas13d, nuclease-dead (Eubacterium siraeum, UniProt B0MS50, R295A;H300A;R849A;H854A)
T1 sequence: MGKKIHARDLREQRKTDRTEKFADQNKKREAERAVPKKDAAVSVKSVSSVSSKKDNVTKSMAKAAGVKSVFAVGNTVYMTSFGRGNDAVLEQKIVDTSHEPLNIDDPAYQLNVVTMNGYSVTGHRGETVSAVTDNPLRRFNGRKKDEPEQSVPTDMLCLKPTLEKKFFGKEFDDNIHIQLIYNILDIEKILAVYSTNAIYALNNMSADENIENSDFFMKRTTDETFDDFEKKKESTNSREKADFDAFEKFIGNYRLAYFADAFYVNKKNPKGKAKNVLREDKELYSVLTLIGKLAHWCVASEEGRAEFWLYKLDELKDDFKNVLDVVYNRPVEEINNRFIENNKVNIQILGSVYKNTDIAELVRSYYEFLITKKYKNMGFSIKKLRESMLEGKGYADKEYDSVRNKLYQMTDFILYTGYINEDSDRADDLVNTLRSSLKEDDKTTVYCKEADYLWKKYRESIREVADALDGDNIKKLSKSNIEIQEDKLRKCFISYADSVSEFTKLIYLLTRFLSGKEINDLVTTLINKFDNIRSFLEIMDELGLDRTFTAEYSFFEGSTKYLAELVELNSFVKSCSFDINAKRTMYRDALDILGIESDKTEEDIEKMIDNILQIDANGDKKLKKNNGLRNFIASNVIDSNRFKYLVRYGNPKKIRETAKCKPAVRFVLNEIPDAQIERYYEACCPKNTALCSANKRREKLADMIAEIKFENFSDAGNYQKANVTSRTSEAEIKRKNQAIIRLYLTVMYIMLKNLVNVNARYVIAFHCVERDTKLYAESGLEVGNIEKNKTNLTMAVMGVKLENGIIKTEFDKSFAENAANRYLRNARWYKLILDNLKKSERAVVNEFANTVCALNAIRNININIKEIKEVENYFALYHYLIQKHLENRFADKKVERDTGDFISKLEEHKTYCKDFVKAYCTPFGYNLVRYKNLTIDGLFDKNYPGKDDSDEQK


Target: T1, EsCas13d, nuclease-dead
Assay: crRNA (strand 1, pre-loaded); Mg2+; 40 mM Tris-HCl pH 7.5, 150 mM NaCl, 6 mM MgCl2, 1 mM DTT, 0.1% Tween-20, 0.2 mg/ml BSA; 25 C; 10 min per concentration, then washed
Conditions: tags: His6-TwinStrep-SUMO cleaved; N-terminal SNAP kept (SNAP-Surface 488); label: 3' end held by stalled T7 RNA polymerase

Binder	Kd
target 1 insG 3' of 18,insU 3' of 12 (mixed) RNA 1: CACCCGUGCAAAAAUGCAGGGGUCUAAAACUGAGCGGAUAACCUCUCUAUGG RNA 2: GGGAAUGGAUCCACAUCUACGAAUUCGUACCAUAGGAGAGGUUUAUCCGCUCACCGAGAUCGGAAGAGCACACGU	50 ± 6 nM
target 1 G12A,U19G (mixed) RNA 1: CACCCGUGCAAAAAUGCAGGGGUCUAAAACUGAGCGGAUAACCUCUCUAUGG RNA 2: GGGAAUGGAUCCACAUCUACGAAUUCGUACCAGAGAGAGAUUAUCCGCUCACCGAGAUCGGAAGAGCACACGU	54 ± 15 nM
target 1 C7G,C22A (mixed) RNA 1: CACCCGUGCAAAAAUGCAGGGGUCUAAAACUGAGCGGAUAACCUCUCUAUGG RNA 2: GGGAAUGGAUCCACAUCUACGAAUUCGUAACAUAGAGAGGUUAUGCGCUCACCGAGAUCGGAAGAGCACACGU	14.2 ± 0.6 nM
target 1 insA 3' of 12 (mixed) RNA 1: CACCCGUGCAAAAAUGCAGGGGUCUAAAACUGAGCGGAUAACCUCUCUAUGG RNA 2: GGGAAUGGAUCCACAUCUACGAAUUCGUACCAUAGAGAGGAUUAUCCGCUCACCGAGAUCGGAAGAGCACACGU	29.5 ± 2.9 nM
target 1 del4,del14 (mixed) RNA 1: CACCCGUGCAAAAAUGCAGGGGUCUAAAACUGAGCGGAUAACCUCUCUAUGG RNA 2: GGGAAUGGAUCCACAUCUACGAAUUCGUACCAUAGAGGGUUAUCCGUCACCGAGAUCGGAAGAGCACACGU	84 ± 32 nM
target 1 insG 3' of 18,insG 3' of 3 (mixed) RNA 1: CACCCGUGCAAAAAUGCAGGGGUCUAAAACUGAGCGGAUAACCUCUCUAUGG RNA 2: GGGAAUGGAUCCACAUCUACGAAUUCGUACCAUAGGAGAGGUUAUCCGCUGCACCGAGAUCGGAAGAGCACACGU	40 ± 2.7 nM
target 1 C4G,C6G (mixed) RNA 1: CACCCGUGCAAAAAUGCAGGGGUCUAAAACUGAGCGGAUAACCUCUCUAUGG RNA 2: GGGAAUGGAUCCACAUCUACGAAUUCGUACCAUAGAGAGGUUAUCGGGUCACCGAGAUCGGAAGAGCACACGU	3.71 ± 0.17 nM
target 1 insG 3' of 18,insC 3' of 12 (mixed) RNA 1: CACCCGUGCAAAAAUGCAGGGGUCUAAAACUGAGCGGAUAACCUCUCUAUGG RNA 2: GGGAAUGGAUCCACAUCUACGAAUUCGUACCAUAGGAGAGGCUUAUCCGCUCACCGAGAUCGGAAGAGCACACGU	~80 nM
target 1 C6U,G12A (mixed) RNA 1: CACCCGUGCAAAAAUGCAGGGGUCUAAAACUGAGCGGAUAACCUCUCUAUGG RNA 2: GGGAAUGGAUCCACAUCUACGAAUUCGUACCAUAGAGAGAUUAUCUGCUCACCGAGAUCGGAAGAGCACACGU	11.1 ± 0.5 nM
target 1 insC 3' of 14,insG 3' of 3 (mixed) RNA 1: CACCCGUGCAAAAAUGCAGGGGUCUAAAACUGAGCGGAUAACCUCUCUAUGG RNA 2: GGGAAUGGAUCCACAUCUACGAAUUCGUACCAUAGAGACGGUUAUCCGCUGCACCGAGAUCGGAAGAGCACACGU	25.6 ± 2.7 nM
target 1 insC 3' of 15,insG 3' of 6 (mixed) RNA 1: CACCCGUGCAAAAAUGCAGGGGUCUAAAACUGAGCGGAUAACCUCUCUAUGG RNA 2: GGGAAUGGAUCCACAUCUACGAAUUCGUACCAUAGAGCAGGUUAUCCGGCUCACCGAGAUCGGAAGAGCACACGU	22.1 ± 0.9 nM
target 1 insG 3' of 6,insA 3' of 5 (mixed) RNA 1: CACCCGUGCAAAAAUGCAGGGGUCUAAAACUGAGCGGAUAACCUCUCUAUGG RNA 2: GGGAAUGGAUCCACAUCUACGAAUUCGUACCAUAGAGAGGUUAUCCGGACUCACCGAGAUCGGAAGAGCACACGU	19.3 ± 1.8 nM
target 1 insG 3' of 18,insC 3' of 17 (mixed) RNA 1: CACCCGUGCAAAAAUGCAGGGGUCUAAAACUGAGCGGAUAACCUCUCUAUGG RNA 2: GGGAAUGGAUCCACAUCUACGAAUUCGUACCAUAGGCAGAGGUUAUCCGCUCACCGAGAUCGGAAGAGCACACGU	89 ± 32 nM
target 1 insA 3' of 5,insU 3' of 4 (mixed) RNA 1: CACCCGUGCAAAAAUGCAGGGGUCUAAAACUGAGCGGAUAACCUCUCUAUGG RNA 2: GGGAAUGGAUCCACAUCUACGAAUUCGUACCAUAGAGAGGUUAUCCGACUUCACCGAGAUCGGAAGAGCACACGU	9.8 ± 1 nM
target 1 insA 3' of 19,insG 3' of 18 (mixed) RNA 1: CACCCGUGCAAAAAUGCAGGGGUCUAAAACUGAGCGGAUAACCUCUCUAUGG RNA 2: GGGAAUGGAUCCACAUCUACGAAUUCGUACCAUAAGGAGAGGUUAUCCGCUCACCGAGAUCGGAAGAGCACACGU	97 ± 30 nM
target 1 insG 3' of 19,insU 3' of 5 (mixed) RNA 1: CACCCGUGCAAAAAUGCAGGGGUCUAAAACUGAGCGGAUAACCUCUCUAUGG RNA 2: GGGAAUGGAUCCACAUCUACGAAUUCGUACCAUGAGAGAGGUUAUCCGUCUCACCGAGAUCGGAAGAGCACACGU	86 ± 18 nM
target 1 C7A,G15C (mixed) RNA 1: CACCCGUGCAAAAAUGCAGGGGUCUAAAACUGAGCGGAUAACCUCUCUAUGG RNA 2: GGGAAUGGAUCCACAUCUACGAAUUCGUACCAUAGACAGGUUAUACGCUCACCGAGAUCGGAAGAGCACACGU	84 ± 25 nM
target 1 insG 3' of 14,insC 3' of 12 (mixed) RNA 1: CACCCGUGCAAAAAUGCAGGGGUCUAAAACUGAGCGGAUAACCUCUCUAUGG RNA 2: GGGAAUGGAUCCACAUCUACGAAUUCGUACCAUAGAGAGGGCUUAUCCGCUCACCGAGAUCGGAAGAGCACACGU	16.7 ± 0.9 nM
target 1 insU 3' of 15,insU 3' of 13 (mixed) RNA 1: CACCCGUGCAAAAAUGCAGGGGUCUAAAACUGAGCGGAUAACCUCUCUAUGG RNA 2: GGGAAUGGAUCCACAUCUACGAAUUCGUACCAUAGAGUAGUGUUAUCCGCUCACCGAGAUCGGAAGAGCACACGU	20 ± 7 nM
target 1 G5U,C7G (mixed) RNA 1: CACCCGUGCAAAAAUGCAGGGGUCUAAAACUGAGCGGAUAACCUCUCUAUGG RNA 2: GGGAAUGGAUCCACAUCUACGAAUUCGUACCAUAGAGAGGUUAUGCUCUCACCGAGAUCGGAAGAGCACACGU	16.8 ± 0.9 nM
target 1 insC 3' of 18,insG 3' of 16 (mixed) RNA 1: CACCCGUGCAAAAAUGCAGGGGUCUAAAACUGAGCGGAUAACCUCUCUAUGG RNA 2: GGGAAUGGAUCCACAUCUACGAAUUCGUACCAUACGAGGAGGUUAUCCGCUCACCGAGAUCGGAAGAGCACACGU	70 ± 13 nM
target 1 insC 3' of 10,insA 3' of 7 (mixed) RNA 1: CACCCGUGCAAAAAUGCAGGGGUCUAAAACUGAGCGGAUAACCUCUCUAUGG RNA 2: GGGAAUGGAUCCACAUCUACGAAUUCGUACCAUAGAGAGGUUCAUCACGCUCACCGAGAUCGGAAGAGCACACGU	11.2 ± 0.6 nM
target 1 insU 3' of 20,insC 3' of 13 (mixed) RNA 1: CACCCGUGCAAAAAUGCAGGGGUCUAAAACUGAGCGGAUAACCUCUCUAUGG RNA 2: GGGAAUGGAUCCACAUCUACGAAUUCGUACCAUUAGAGAGCGUUAUCCGCUCACCGAGAUCGGAAGAGCACACGU	28 ± 3 nM
target 1 U10C,A16G (mixed) RNA 1: CACCCGUGCAAAAAUGCAGGGGUCUAAAACUGAGCGGAUAACCUCUCUAUGG RNA 2: GGGAAUGGAUCCACAUCUACGAAUUCGUACCAUAGGGAGGUCAUCCGCUCACCGAGAUCGGAAGAGCACACGU	62 ± 7 nM
target 1 insA 3' of 17,insC 3' of 12 (mixed) RNA 1: CACCCGUGCAAAAAUGCAGGGGUCUAAAACUGAGCGGAUAACCUCUCUAUGG RNA 2: GGGAAUGGAUCCACAUCUACGAAUUCGUACCAUAGAAGAGGCUUAUCCGCUCACCGAGAUCGGAAGAGCACACGU	23 ± 4 nM
target 1 insU 3' of 7,insU 3' of 7 (mixed) RNA 1: CACCCGUGCAAAAAUGCAGGGGUCUAAAACUGAGCGGAUAACCUCUCUAUGG RNA 2: GGGAAUGGAUCCACAUCUACGAAUUCGUACCAUAGAGAGGUUAUCUUCGCUCACCGAGAUCGGAAGAGCACACGU	7.9 ± 0.4 nM
target 1 insA 3' of 8,insG 3' of 1 (mixed) RNA 1: CACCCGUGCAAAAAUGCAGGGGUCUAAAACUGAGCGGAUAACCUCUCUAUGG RNA 2: GGGAAUGGAUCCACAUCUACGAAUUCGUACCAUAGAGAGGUUAUACCGCUCAGCCGAGAUCGGAAGAGCACACGU	18.3 ± 0.8 nM
target 1 insU 3' of 21,insG 3' of 6 (mixed) RNA 1: CACCCGUGCAAAAAUGCAGGGGUCUAAAACUGAGCGGAUAACCUCUCUAUGG RNA 2: GGGAAUGGAUCCACAUCUACGAAUUCGUACCUAUAGAGAGGUUAUCCGGCUCACCGAGAUCGGAAGAGCACACGU	28.1 ± 3 nM
